{"source": "patent US20100112602A1", "about": "(published 2010)", "binders": {"B1": {"name": "TagGFP-NES/NLS-HDM2 biosensor (other)", "chain": "MVSKGEELIKENMHMKLYMEGTVNNHHFKCTSEGEGKPYEGTQTMRIKVVEGGPLPFAFDILATSFMYGSRTFINHTQGIPDFFKQSFPEGFTWERVTTYEDGGVLTATQDTSLQDGCLIYNVKIRGVNFPSNGPVMQKKTLGWEANTEMLYPADGGLEGRSDMALKLVGGGHLICNFKTTYRSKKPAKNLKMPGVYYVDHRLERIKEADKETYVEQHEVAVARYCDLPSKLGHKLNSGLRSRAQASNSPQTPLHTSRVLKEDKERWEDVKEEMTSALATMCVDYEQIKIKKIEDASNPLLLKRRKKLEMCNTNMSVPTDGAVTTSQIPASEQETLVRPKPLLLKLLKSVGAQKDTYTMKEVLFYLGQYIMTKRLYDEKQQHIVYCSNDLLGDLFGVPSFSVKEHRKIYTMIYRNLVVVNQQESSDS", "notes": "also called NES/NLS-HDM2-RFP; shuttling component"}}, "target": "T1, GFP-rev-p53 biosensor", "T1 construct": "also called rev-p53-GFP; NLS-p53-GFP construct", "assay": "co-localization of fluorescent biosensor components co-expressed in U2OS cells", "data": [{"binder": "B1", "values": [{"measurement": "binding result", "result": "binds"}]}]}
